A short description of this data set: protein stability index of a GFP-peptide fusion (GPS, HEK-293T) (PSI 1-6); higher = more stable.
Where [1] appears, read: treatment: DMSO, c terminus: a fixed tail appended.
Where [2] appears, read: treatment: MLN4924 1 uM, 8 h, c terminus: a fixed tail appended.

Consider 72 sequences from the supplement of paper PMC10567573.

± gives the standard deviation.
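Further: 24-mer peptide tiles fused after GFP, lentivirally expressed, FACS-sorted into six equal bins by GFP/DsRed ratio, decoded by Illumina sequencing, PSI is the read-weighted mean bin number.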

MELLRTITYQPAASTKMCEQALGK [PLK2]: the protein stability index stood at 2.46 ± 0.47 under setting [1] and 3.06 ± 0.43 under setting [2].

In turn, METGRWKKINTEGDVPPSMSGSCA [KLHDC2] returned a protein stability index under setting [1] of 4.01 ± 0.34 and a protein stability index under setting [2] of 4.21 ± 0.097.

Sequence MEVLAAETTSQQERLQAIAEKRKR [PALM] came in with a protein stability index under setting [1] of 5.15 ± 0.27 and a protein stability index under setting [2] of 5.23 ± 0.32.

Consider MGDEEKRNRAITARRQHLKSVMLQ [TNNI2], for which the protein stability index under setting [1] was 4.06 ± 0.3 and the protein stability index under setting [2] is 4.12 ± 0.21.

Consider MGGCPVRKRRRNGSKEGNHHSTQP [FAM104B], for which the protein stability index is 4.72 ± 0.17 under setting [1] and 4.86 ± 0.24 under setting [2].

Regarding MGGPFSYVYFFCTVPEILVHNIVI [TMEM106C], the protein stability index was found to be 3.23 ± 0.51 under setting [1] and 3.19 ± 0.82 under setting [2].

Take MGMNMNIGMSAAGMGLTGTMGMGM [CLINT1]: the protein stability index runs as follows: under setting [1], 2.48 ± 0.18; under setting [2], 2.2 ± 0.28.

For MGPAPRARPWTRDSASLPRKPSVP [RASAL3], the protein stability index stood at 4.08 ± 0.14 under setting [1] and 4.12 ± 0.23 under setting [2].

Regarding MGTRDDEYDYLFKVVLIGDSGVGK [RAB11A], the protein stability index is, setting by setting: under setting [1], 2.27 ± 0.41; under setting [2], 2.44 ± 0.35.

On to MHPINVRRDPSIPIYGLRQSILLN [C22orf31], for which the protein stability index by setting is: under setting [1], 2.33 ± 0.22; under setting [2], 2.63 ± 0.51.

For the sequence MKALILVGGYGTRLRPLTLSTPKP [GMPPB], the protein stability index is, setting by setting: under setting [1], 2.18 ± 0.61; under setting [2], 2.23 ± 0.23.

As for MLKRPVLLHLHQTAHADEFDCPSE [STEAP1], the protein stability index is, setting by setting: under setting [1], 3.73 ± 0.29; under setting [2], 3.73 ± 0.48.

On to MMVNLRACSAPGGLVPSEKPPMMP [C2CD2L], for which the protein stability index by setting is: under setting [1], 2.14 ± 0.26; under setting [2], 2.29 ± 0.06.

For MNTEAEQQLLHHARNGNAEEVRQL [OSBPL1A], the protein stability index by setting is: under setting [1], 5.24 ± 0.28; under setting [2], 5.47 ± 0.12.

In the case of MQAASSKMVSAEISENRKRQWPTK [SDE2], the protein stability index amounted to 4.33 ± 0.33 under setting [1] and 4.7 ± 0.17 under setting [2].

MQATADSTKMDCVWSNWKSQAIDL [RTN1]: the protein stability index by setting is: under setting [1], 3.17 ± 0.11; under setting [2], 3.41 ± 0.36.

Take MQPEGLKCRMEESNAERGTAEPFP [CBY2]: the protein stability index runs as follows: under setting [1], 4.88 ± 0.3; under setting [2], 4.69 ± 0.27.

Consider MRRGAPQDQELVGPGPPGRGSRGA [MOSPD3], for which the protein stability index reads like this: under setting [1], 5.31 ± 0.44; under setting [2], 5 ± 0.28.

As to MTEMSFLSSEVLVGDLMSPFDQSG [ATF4], the protein stability index was 3.37 ± 0.1 under setting [1] and 3.24 ± 0.37 under setting [2].

Take MTQVITRTQEEKLEHVRALIKKYS [TRIM55]: the protein stability index by setting is: under setting [1], 2.68 ± 0.11; under setting [2], 2.94 ± 0.3.

In the case of MTVGILSNSLAIAILMKAYQRFRQ [PTGFR], the protein stability index runs as follows: under setting [1], 2.17 ± 0.28; under setting [2], 2.2 ± 0.31.

Turning to NEGAIDCVNYEGQSAYDVADMLKQ [DLC1], the protein stability index by setting is: under setting [1], 4.82 ± 0.28; under setting [2], 4.82 ± 0.12.

Consider NERMLESYLHAKKYLKPSGNMFPT [CARM1], for which the protein stability index was 2.59 ± 0.26 under setting [1] and 2.99 ± 0.37 under setting [2].

With NEYFFDRNRPSFDAILYYYQSGGR [KCNA3], the protein stability index runs as follows: under setting [1], 2.34 ± 0.3; under setting [2], 2.42 ± 0.18.

Turning to NGITQGDKLRALKSQRQPRTSPSC [CDC14A], the protein stability index by setting is: under setting [1], 4.16 ± 0.19; under setting [2], 4.14 ± 0.071.

Consider NGVLEPLYLCPNGARCATWFQDPT [SLC25A39], for which the protein stability index reads like this: under setting [1], 2.48 ± 0.19; under setting [2], 2.47 ± 0.074.

In the case of NHRLISEILSESVVPDVRSVVTTA [SMARCE1], the protein stability index was 3.31 ± 0.26 under setting [1] and 3.17 ± 0.56 under setting [2].

For NIMMPMGGMMPPGPGIPPLMPGMP [ZNF207], the protein stability index amounted to 2.87 ± 0.29 under setting [1] and 2.88 ± 0.13 under setting [2].

Sequence NKRVGMYLEGFDPFNQSTFNNVVE [DLC1] displayed a protein stability index under setting [1] of 3.09 ± 0.24 and a protein stability index under setting [2] of 3.23 ± 0.2.

As to NKVELQAKVESMDQEIKFFRCLFE [KRT71], the protein stability index was determined as 2.52 ± 0.51 under setting [1] and 2.48 ± 0.38 under setting [2].

With NLLRDDRVLQNLLTIEERYLPQCS [CCND2], the protein stability index was 2.49 ± 0.26 under setting [1] and 2.58 ± 0.35 under setting [2].

For NLQSLKFQGGHGPAATLLRRSKT [RIPK4], the protein stability index amounted to 3.18 ± 0.21 (treatment: DMSO, c terminus: native) and 3.27 ± 0.14 (treatment: MLN4924 1 uM, 8 h, c terminus: native).

In the case of NLSSRWKNWWVRGILTLAMIAFFF [CDS2], the protein stability index is, setting by setting: under setting [1], 4.15 ± 0.14; under setting [2], 4.04 ± 0.15.

Regarding NMMKVLRGHQNWVYSCAFSPDSSM [WSB1], the protein stability index runs as follows: under setting [1], 2.37 ± 0.96; under setting [2], 2.64 ± 0.54.

For the sequence NMPETLPNNSCYSAGIAKLEEGDE [TNFSF13B], the protein stability index is 5.35 ± 0.23 under setting [1] and 5.5 ± 0.21 under setting [2].

For NNFSPLHLAVDKNTTCVGRYPVCK [FEM1C], the protein stability index runs as follows: under setting [1], 3.42 ± 0.15; under setting [2], 3.52 ± 0.12.

On to NPTEPATIIFTAAREGRETLKCLS [TOR1AIP2], for which the protein stability index reads like this: under setting [1], 3.71 ± 0.25; under setting [2], 3.69 ± 0.12.

For the sequence NPTQNVRTILLSVISLLNEPNTFS [CDC34], the protein stability index runs as follows: under setting [1], 2.86 ± 0.54; under setting [2], 2.95 ± 0.61.

Regarding NQGYLSEAGASLVDQKLELNIVPR [PI4K2A], the protein stability index was 4.05 ± 0.23 under setting [1] and 4.33 ± 0.28 under setting [2].

Turning to NRNHNEGMVTRCIIEVLSNALSKS [CHGB], the protein stability index came out at 2.25 ± 0.24 under setting [1] and 2.1 ± 0.27 under setting [2].

In the case of NSHVYNGRTHQWKPLYPDDYVHIS [ADAMTSL2], the protein stability index was determined as 2.78 ± 0.31 under setting [1] and 2.8 ± 0.34 under setting [2].

NSLFIDRQKCMAHRTRYPTILQLA [TEKT4] showed a protein stability index under setting [1] of 2.23 ± 0.34 and a protein stability index under setting [2] of 2.12 ± 0.23.

Regarding NTKLRQAERLFENQLVGPESIAHI [APMAP], the protein stability index by setting is: under setting [1], 3.22 ± 0.12; under setting [2], 3.42 ± 0.48.

On to NTRFVVDPSIFTAQPNTMLGRMFG [BTBD10], for which the protein stability index is, setting by setting: under setting [1], 2.51 ± 0.52; under setting [2], 2.44 ± 0.16.

As for NVGLESKYLKKREDSIPLRGLSQN [SASS6], the protein stability index is, setting by setting: under setting [1], 4.34 ± 0.19; under setting [2], 4.06 ± 0.26.

For NVPPIPVETLVKKKIPIISNAMLV [ACSBG2], the protein stability index under setting [1] came out at 2.4 ± 0.21 and the protein stability index under setting [2] came out at 2.38 ± 0.27.

NYASIIRRDCMWSGFSARERLERA [MYCL] showed a protein stability index under setting [1] of 2.78 ± 0.3 and a protein stability index under setting [2] of 2.77 ± 0.3.

Turning to NYPKGGLLDSMCPASTPSVLSSEQ [ETS2], the protein stability index reads like this: under setting [1], 4.64 ± 0.26; under setting [2], 4.45 ± 0.15.

On to NYQAHQSRVTMILFVLELEWVLST [WDFY2], for which the protein stability index was 3.1 ± 0.08 under setting [1] and 2.89 ± 0.67 under setting [2].

With PAAGLDVTQPCGDCGTIQENWVCL [HDAC6], the protein stability index under setting [1] is 2.68 ± 0.25 and the protein stability index under setting [2] came to 2.79 ± 0.25.

PAYATTRIRSQIGNTESELKKLAE [GDAP1]: the protein stability index was found to be 4.53 ± 0.095 under setting [1] and 4.53 ± 0.18 under setting [2].

Take PCKLEKMRILAHGELVLATAISSF [TLE6]: the protein stability index runs as follows: under setting [1], 2.7 ± 0.36; under setting [2], 2.45 ± 0.41.

Turning to PDDSTSEDGIHTLTCALMLLNTDL [PSD2], the protein stability index is 3.12 ± 0.27 under setting [1] and 3.1 ± 0.34 under setting [2].

Consider PDEERPLRRPRPVQRTQSVPVRRP [RASAL3], for which the protein stability index was determined as 5.19 ± 0.27 under setting [1] and 5.21 ± 0.18 under setting [2].

Regarding PDREKGFHLDVEDYLSGVLILASE [TSN], the protein stability index under setting [1] was 2.14 ± 0.1 and the protein stability index under setting [2] came out at 2.81 ± 0.2.

In the case of PDSPATGAHWMRQLVSFQKLKLTN [TBX5], the protein stability index by setting is: under setting [1], 2.92 ± 0.35; under setting [2], 3 ± 0.21.

As to PEAVDEDRSTEPDRLQVFHKRAIM [ATE1], the protein stability index under setting [1] was 4.8 ± 0.23 and the protein stability index under setting [2] worked out at 4.91 ± 0.12.

With PEEPAASTDPNIVRKKERGREEKC [TAF7L], the protein stability index by setting is: under setting [1], 5.28 ± 0.53; under setting [2], 5.64 ± 0.32.

Consider PEGGLEEPDALDDSLTSLQWLQEF [FOXJ1], for which the protein stability index is 4.64 ± 0.17 under setting [1] and 4.53 ± 0.3 under setting [2].

Consider PEGYNLKDEEGRLRDPATITTLRV [PPP2R2B], for which the protein stability index runs as follows: under setting [1], 4.54 ± 0.062; under setting [2], 4.37 ± 0.29.

Take PELTITSLFSPVTEDSPLGTVVAL [PCDHGA10]: the protein stability index under setting [1] turned out to be 2.56 ± 0.26 and the protein stability index under setting [2] amounted to 2.72 ± 0.33.

On to PESAIKFMAYEQIKRLVGSDQETL [SLC25A25], for which the protein stability index was found to be 3.31 ± 0.15 under setting [1] and 3.4 ± 0.25 under setting [2].

On to PFTKKRVGVDRAFPLKPMVHRKSC [ZC2HC1C], for which the protein stability index worked out at 3.4 ± 0.13 under setting [1] and 3.65 ± 0.1 under setting [2].

On to PFYPEVELNFISVFWPQLPNGLEA [MMP1], for which the protein stability index by setting is: under setting [1], 2.61 ± 0.28; under setting [2], 2.62 ± 0.52.

Regarding PGACPALGTKSCSSSCAVHDLIFW [RTN3], the protein stability index runs as follows: under setting [1], 2.35 ± 0.33; under setting [2], 2.29 ± 0.39.

Turning to PGMASHPPIPILELADHIERLKAN [PTPRD], the protein stability index under setting [1] was 3.6 ± 0.18 and the protein stability index under setting [2] is 3.81 ± 0.19.

As for PGPPSAPPPPPKEGHQEGLVELPA [SCNN1D], the protein stability index is, setting by setting: under setting [1], 5.46 ± 0.23; under setting [2], 5.47 ± 0.17.

PKDENERSTCNVVQDEFLDTPCTN [DLC1]: the protein stability index runs as follows: under setting [1], 5.45 ± 0.15; under setting [2], 5.41 ± 0.13.

With PKKGPAPSLSPGSSCVKYLIFLSN [TSPAN10], the protein stability index by setting is: under setting [1], 2.59 ± 0.64; under setting [2], 2.43 ± 0.21.

As to PLESAFDHEDFTGSSSLGFTSSPS [FCHO1], the protein stability index reads like this: under setting [1], 4.81 ± 0.35; under setting [2], 5.07 ± 0.15.

In the case of PLHVAQTRLYLRSHRPNMELCRDA [TEKT4], the protein stability index runs as follows: under setting [1], 2.9 ± 0.17; under setting [2], 3 ± 0.18.

On to PNGKHSTNFVSRYDPRFNSWIQLP [KLHL14], for which the protein stability index reads like this: under setting [1], 2.32 ± 0.097; under setting [2], 2.58 ± 0.24.
